Reference: patent publication US20140308283A1 (TORAY INDUSTRIES, published 2014)
One block for each binder: values may come before it.

What was measured:
[1] = biological target: T1, CAPRIN-1 protein expressed on the cell membrane surface of human cancer cell lines (human, UniProt Q14444 2-709); test: flow cytometry on Capan-2, MIAPaCa-2, PANC-1 and BxPC-3 cells, vs isotype control
T1 construct: whole, on cells; also called human CAPRIN-1; Cytoplasmic- and proliferation-associated protein 1
T1 sequence (looked up): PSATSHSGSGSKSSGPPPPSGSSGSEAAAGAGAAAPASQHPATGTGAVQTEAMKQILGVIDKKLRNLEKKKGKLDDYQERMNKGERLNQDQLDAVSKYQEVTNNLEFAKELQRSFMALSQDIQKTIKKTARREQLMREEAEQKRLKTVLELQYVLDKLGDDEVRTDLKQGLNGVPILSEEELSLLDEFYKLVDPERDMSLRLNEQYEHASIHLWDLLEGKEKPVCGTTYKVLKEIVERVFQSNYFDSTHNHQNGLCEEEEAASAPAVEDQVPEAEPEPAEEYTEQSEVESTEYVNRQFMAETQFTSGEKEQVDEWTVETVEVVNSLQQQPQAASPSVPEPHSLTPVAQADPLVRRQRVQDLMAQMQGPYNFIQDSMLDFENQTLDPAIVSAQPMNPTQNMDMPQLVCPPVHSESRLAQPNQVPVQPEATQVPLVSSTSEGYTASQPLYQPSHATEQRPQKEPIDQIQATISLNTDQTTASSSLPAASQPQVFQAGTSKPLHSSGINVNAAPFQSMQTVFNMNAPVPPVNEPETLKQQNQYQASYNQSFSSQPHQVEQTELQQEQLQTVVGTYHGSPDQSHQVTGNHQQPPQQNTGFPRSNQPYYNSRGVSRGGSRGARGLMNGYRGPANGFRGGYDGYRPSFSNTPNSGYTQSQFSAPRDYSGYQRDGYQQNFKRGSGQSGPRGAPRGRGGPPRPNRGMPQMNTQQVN
Method: Next, four pancreatic cancer cell lines (Capan-2, MIAPaCa-2, PANC-1, and BxPC-3) confirmed to have CAPRIN-1 gene expression were examined for their expression of CAPRIN-1 protein on the cell surface. 10⁶ cells of each cell line were centrifuged in each 1.5-ml microcentrifuge tube. The cancer cell surface-reactive anti-CAPRIN-1 mouse monoclonal antibodies #1 to #22 prepared in Example 4 and the culture supernatant (100 μl) containing the anti-CAPRIN-1 mouse-chicken chimeric antibody #1, #2, or #3 prepared in the preceding paragraph (2) were separately added to the tubes and left standing for 1 hour on ice. After washing with PBS, the cells were suspended in FITC-labeled goat anti-mouse IgG antibodies (manufactured by Invitrogen Corp.) diluted 500-fold with PBS containing 0.1% FBS and left standing for 1 hour on ice. After washing with PBS, the fluorescence intensity was measured using FACSCalibur (Becton, Dickinson and Company). On the other hand, the same operation as above was performed using isotype control antibodies, instead of the anti-CAPRIN-1 mouse monoclonal antibodies #1 to #22 and the culture supernatant containing the mouse-chicken chimeric antibody #1, #2, or #3, to prepare a control. As a result, all the cells supplemented with any of the monoclonal antibodies #1 to #22 and the mouse-chicken chimeric antibodies #1, #2, and #3 had fluorescence intensity at least 20% stronger than that of the control. […] The above rate of enhancement in fluorescence intensity was indicated by the rate of increase in mean fluorescence intensity (MFI) in each cell line and calculated according to the following expression: […]

[2] = biological target: T1, CAPRIN-1 protein expressed on the cell …; test: cell-based or functional assay
[3] = biological target: T2, polypeptide of SEQ ID NO: 266 (human); test: ELISA on immobilised synthetic CAPRIN-1 peptides
T2 peptide: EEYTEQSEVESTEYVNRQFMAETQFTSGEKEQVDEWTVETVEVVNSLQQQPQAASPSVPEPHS
Method: (§1) Then, the solution in each well was discarded, and each well was washed six times with PBST.
(§2) A TMB substrate solution (manufactured by Thermo Fisher Scientific Inc.) was added thereto at a concentration of 100 μl/well and left standing for 15 to 30 minutes to cause color reaction. After the color development, the reaction was terminated by the addition of 1 N sulfuric acid at a concentration of 100 μl/well. The absorbance was measured at 450 nm and 595 nm using an absorption spectrometer. As a result, a polypeptide of SEQ ID NO: 266 was identified as a partial CAPRIN-1 sequence recognized by all of the anti-CAPRIN-1 antibodies human-chicken chimeric monoclonal antibody #1 and anti-CAPRIN-1 monoclonal antibodies #1 to #5. In the polypeptide of SEQ ID NO: 266, a peptide of SEQ ID NO: 267 was identified as a partial sequence recognized by the human-chicken chimeric monoclonal antibody #1 and the mouse monoclonal antibodies #3 and #4. In the polypeptide of SEQ ID NO: 266, a peptide of SEQ ID NO: 268 was identified as a partial sequence recognized by the mouse monoclonal antibodies #1, #2, and #5. […] Also, a polypeptide comprising the amino acid sequence of SEQ ID NO: 270 was identified as a partial CAPRIN-1 sequence recognized by all of the anti-CAPRIN-1 monoclonal antibodies #6, #7, and #8. […] In addition, a polypeptide comprising the amino acid sequence of SEQ ID NO: 272 was identified as a partial CAPRIN-1 sequence recognized by all of the anti-CAPRIN-1 monoclonal antibodies #9, #10, and #11. […] In addition, a polypeptide comprising the amino acid sequence of SEQ ID NO: 269 was identified as a partial CAPRIN-1 sequence recognized by the human-chicken chimeric monoclonal antibody #3.

[4] = biological target: T3, peptide of SEQ ID NO: 268 (human); test: ELISA on immobilised synthetic CAPRIN-1 peptides
T3 peptide: FTSGEKEQVDEW
Method: as §1, §2

[5] = biological target: T4, polypeptide comprising the amino acid sequence of SEQ ID NO: 269 (human); test: ELISA on immobilised synthetic CAPRIN-1 peptides
T4 peptide: PPVNEPETLKQQNQYQAS
Method: as §1, §2

[6] = biological target: T5, peptide of SEQ ID NO: 267 (human); test: ELISA on immobilised synthetic CAPRIN-1 peptides
T5 peptide: QQPQAASPSVPE
Method: as §1, §2

rate of increase in mean fluorescence intensity [1]: ≥ 20% | binding result [3]: binds | binding result [4]: binds
B1: mouse monoclonal antibody #5 (antibody, V domains shown)
VH: DAELVKPGASVKISCKASGYTFTDHSIHWVQQKPEQGLEWIGYISPGNGNIKYNEKFKGKATLTADKSSSTAYMQLNSLTSEDSAVYFCKRSLGRGGPYYFDYWGQGTTVTVSS
VL: DIVLTQAAPSLPVTPGESVSISCRSSKSLLHSNGNTYLYWFLQRPGQSPQLLIYRMSNLASGVPDRFSGSGSGTAFTLRISRVEAEDVGVYYCMQHREYPVTFGSGPN
notes: Mouse hybridoma antibody; also called anti-CAPRIN-1 mouse monoclonal antibody #5
cytotoxic activity (ADCC) against MIAPaCa-2 and Capan-2 [2]: ≥ 10%

binding result [5]: binds
B2: human-chicken chimeric antibody #3 (antibody, human IgG1, kappa, V domains shown)
VH: AVTLDESGGGLQTPGGALSLVCKASGFTFSGYDMLWVRQAPGKGLEWVAGIGSTGGGTDYGAAVKGRATISRDNGQSTVRLQLNNLRAEDTATYYCAKVAGGCNSGYCRDSPGSIDAWGHGTEVIVSA
VL: AVTQQPASVSANPGETVKITCSGGGSRNYYGWYQQKSPGSVPVTVIYYDDQRPSNIPSRFSGALSGSTSTLTITGVQADDEAVYFCGSADSNTYEGSFGAGTTLTVLT
notes: also called human-chicken chimeric monoclonal antibody #3
cytotoxic activity (ADCC) against MIAPaCa-2 and Capan-2 [2]: ≥ 10%

rate of increase in mean fluorescence intensity [1]: ≥ 20% | binding result [3]: binds | binding result [6]: binds
B3: mouse monoclonal antibody #4 (antibody, V domains shown)
VH: GAELVRSGASVKMSCKASGYSFTDYNMYWVKQTPGQGLEWIGYIYPGNGGTNYNQKFKGKATLTADTSSSTAYMQISSLTSEDSAVYFCARDYDDGGYAMDYWGQGTTVTVSS
VL: DIQMTQSPASLSASVGETVTITCRASGNIHNYLTWYQQKQGKSPQLLVYNAKTLADGVPSRFSGSGSGTQYSLKINRLQPEDFGSYYCQHFWNIPWTFGGGTKLNSR
notes: Mouse hybridoma antibody; also called anti-CAPRIN-1 mouse monoclonal antibody #4
cytotoxic activity (ADCC) against MIAPaCa-2 and Capan-2 [2]: ≥ 10%
